# Laboratory results taken from patent US10889844B2, “Methods of degrading or hydrolyzing a polysaccharide” (Novozymes A/S, priority 2010, dated 2021).
# Entries after “also recorded” stand apart in the source; their conditions may differ.
# Experiments:
# [1] = tested on: N-terminal CBM33 domain of CelS2; experiment: Metal reactivation of EDTA treated N-terminal CBM33 domain of CelS2 (HPAEC, FIG. 31); assay type: biochemical, Streptomyces coelicolor A3(2); conditions: for reactivation of EDTA treated enzyme: 10 μM metal ion, 20 μM EDTA, 1.7 mM reduced glutathione, pH 6.6
# Description: […]; Mg^2+, Fe^3+, Zn^2+, Co^2+, Ca^2+, Cu^2+). […].
# To identify which is the preferred metal for CelS2, the activity of the N-terminal CBM33 domain of CelS2 was inhibited by EDTA and different metals were tested to reactivate the protein.
# [2] = CBP21 reaction speed and degree of substrate oxidation (UHPLC of oxidized chitooligosaccharides); assay type: biochemical
# Description: FIGS. 16A and 16B show the speed and extent of oxidative cleavage by CBP21 activity. […] After five hours, approximately 4.9% of the total sugars (theoretical number based on chitin concentration) are oxidized*. […] The degree of oxidation was determined by rapid conversion of the treated chitin with a large dose of a chitinase cocktail followed by UHPLC detection of oxidized dimers (filled diamonds) and trimers (filled triangles), as described in the Materials and Methods section. The linear part of the reaction represents an oxidation rate of approximately 1 per minute**. Maximum levels are reached after 2-3 hours and represent a degree of oxidation of 7.6% of the total sugars (theoretical number based on chitin concentration)***. Data in both panels are mean+/−SD (N=3); error bars (not visible for every point) indicate SD.
# *The end concentrations of oxidized trimer and tetramer are 53 and 55 μM, respectively, giving rise to a total of 108 μM GlcNAcA. The molar concentration of GlcNAc in the solution is 2217 μM. Thus the degree of oxidation is 108/2217; in other words 4.9% of the sugars are GlcNAcA. **The rates calculated for oxidized dimer and oxidized trimer are 0.68 and 0.60 μM/min. […] The molar concentration of GlcNAc in the solution is 2217 μM. Thus the degree of oxidation is 168/2217; in other words 7.6% of the sugars are GlcNAcA.
# Fractions were dried under vaccum (SpeedyVac), and resuspended in 50 μL MilliQ water. Purity was verified by MALDI-TOF MS. Isolated GlcNAc3GlcNAcA or GlcNAc4GlcNAcA were each incubated for 2 hours at 37° C. with 7.0 μM of a pure recombinant family 19 chitinase (ChiG from Streptomyces coelicolor (Hoell et al., 2006, FEBS J. 273: 4889)) resulting in production of equimolar amounts of GlcNAc2 and GlcNAcGlcNAcA or GlcNAc2GlcNAcA, respectively. The amount of GlcNAc2 resulting from the hydrolysis was estimated using a predetermined standard curve. Response factors for the GlcNAcA containing oligosaccharides were obtained by determining GlcNAcGlcNAcA/GlcNAc2 and GlcNAc2GlcNAcA/GlcNAc2 peak area ratios and found to be 0.71 and 0.81, respectively. A response factor for GlcNAc3GlcNAcA was approximated to be 0.88 by extrapolation of the two experimentally determined response factors. Using the response factors determined, GlcNAcGlcNAcA and GlcNAc2GlcNAcA peaks could be quantified using GlcNAc2 for calibration. […] Additionally, the reactions contained 0.45 mg/mL beta-chitin, 1.0 μM CBP21 and 0.5 ChiC μM in 20 mM Tris-HCl pH 8.0.
# The reactions were incubated at 37° C. in an Eppendorf Thermo mixer with shaking at 1000 rpm, and sampled at 30, 60, 120 and 300 minutes. All samples were mixed 1:1 with 100% acetonitrile in order to stop the reaction and soluble products were analyzed by UHPLC. Separation of the oxidized oligosaccharides and GlcNAc2 was achieved using a column temperature of 30° C. and a flow of 0.4 mL/min, with a gradient starting at 80% ACN (A):20% 15 mM Tris-HCl pH 8.0 (B) for 4.5 minutes, followed by an 11 minute gradient to 63% A: 37% B which was held for 3.5 minutes. Column reconditioning was achieved by a two minute gradient to initial conditions and subsequent running at initial conditions for 5 minutes. Eluted oligosaccharides were monitored by recording absorption at 205 nm. Chromatograms were recorded, integrated and analysed using the ChemStation rev. B.04.02 chromatography software (Agilent Technologies).
# In order to approximate the rate of the CBP21 oxidohydrolytic activity, reactions containing 0.45 mg/mL beta-chitin, 1.0 μM CBP21 and 1.0 mM reduced glutathione in 20 mM Tris-HCl pH 8.0 were incubated at 37° C. and sampled at 10, 15, 30,45, 60 and 300 minutes. […]
# [3] = Chitin solubilization by CBP21: soluble oxidized products (MALDI-TOF MS, UHPLC); assay type: biochemical; conditions: 2.0 mg/mL beta-chitin, 1.0 mM ascorbic acid, 20 mM Tris pH 8.0, 37° C.
# Description: Two microliter of a 9 mg/mL mixture of 2,5-dihydroxybenzoic acid (DHB) in 30% acetonitrile was applied to a MTP 384 target plate ground steel TF (Bruker Daltonics). One microliter sample was then mixed into the DHB droplet and dried under a stream of air. The samples were analyzed with an Ultraflex MALDI-TOF/TOF instrument (Bruker Daltonics GmbH, Bremen, Germany) with a Nitrogen 337 nm laser beam. The instrument was operated in positive acquisition mode and controlled by the FlexControl 3.3 software package. All spectra were obtained using the reflectron mode with an acceleration voltage of 25 kV, a reflector voltage of 26, and pulsed ion extraction of 40 ns in the positive ion mode. The acquisition range used was from m/z 0 to 7000. […] Post-source decay (PSD) spectra using the Bruker Daltonics LIFT system were recorded at 8 kV precursor ion acceleration voltage and fragment acceleration (LIFT voltage 19 kV). […]
# UHPLC was run on an Agilent 1290 Infinity UHPLC system equipped with diode array detector, set up with a Waters Acquity UPLC BEH amide column (2.1×150 mm with a 2.1×30 mm pre column both having a column material particle size of 1.7 μm) using 5 μL sample injections. […] Eluted oligosaccharides were monitored by recording absorption at 205 nm. Chromatograms were recorded, integrated and analysed using the ChemStation rev. […]
# [4] = Time course of filter paper cellulose degradation by […] with CelS2 (FIG. 25); assay type: biochemical; conditions: 10 mg/ml filter paper, 0.8 μg/ml CC, pH 5.5
# Description: In reactions where no CelS2 was present, 40 μg/ml purified BSA was added in order to maintain an identical protein load. […] Data are mean+/−SD (N=3); error bars indicate SD.
# [5] = 0.1 mg/mL beta-chitin, 0.5 μM ChiC, 1.0 mM ascorbic acid, pH 8.0
# Description: CBP21-like and GH61 proteins contain two highly conserved histidines (H28 and H114 in CBP21), one of which is the N-terminal histidine of the secreted mature protein.
# Isocratic HPLC was run on a Dionex Ultimate 3000 HPLC system set up with a 4.6×250 mm Amide-80 column (Tosoh Bioscience, Montgomeryville, Pa., USA) with an Amide-80 guard column. The mobile phase consisted of 70% acetonitrile: 30% MilliQ H2O and the flow rate was 0.7 ml/min. Eluted oligosaccharides were monitored by recording absorption at 190 nm. Chromatograms were recorded, integrated and analysed using the Chromeleon 6.8 chromatography software (Dionex). […] A standard solution containing 0.10 mM (GlcNAc)2 was analyzed at regular intervals during the sample series, and the resulting average values (displaying standard deviations of less than 3%) were used for calibration.
# For the sake of experimental simplicity and throughput, the degradation of chitin in reactions with ChiC and CBP21 was quantitatively assessed by measuring concentration of the dominant product, (GlcNAc)2, only.
# The reaction was incubated at 37° C. and sampled at regular time intervals. Chitin degradation was measured by determining the concentration of (GlcNAc)2 by HPLC.
# [6] = Filter paper degradation by […] with CelS2 or E7 (FIG. 20), sugars by HPLC; assay type: biochemical
# Description: Reactions were run in 50 mM Bis-tris/HCl pH 6.5, 1 mM MgCl2, at 50° C. and 900 rpm (horizontal agitation). Control reactions containing the cellulosic substrate suspended in the same buffer as used for the enzyme assays gave no detectable signal for either glucose or cellobiose.
# The mobile phase consisted of 5 mM sulfuric acid and the flow rate used was 1.0 ml/min. Eluted glucose and cellobiose were monitored by recording refractive index. Quantification was obtained by running glucose and cellobiose standards.
# Assays performed to evaluate the function of E7 and CelS2 were set up using a variety of cellulosic substrates (AVICEL®, filter paper and steam exploded wood chips from poplar), at either pH 5.5 (20 mM sodium acetate buffer), 6.5 (20 mM Bis-Tris buffer) or 8.0 (20 mM Tris buffer) in reaction mixtures containing 1.0 mM MgCl2.
# [7] = Soluble products released from AVICEL by CBM33 proteins (MALDI-TOF MS, HPAEC); assay type: biochemical; conditions: with external electron donor (ascorbic acid or reduced glutathione)
# Description: The main peaks are annotated with molecular weight and degree of polymerization (DP).
# The DP of the oxidized cellooligosaccharides is indicated by n, where n=3 (the shortest labelled oxidized cellooligosaccharide has a DP of three (=n)). […] Peak annotation was performed by comparing the chromatogram with the chromatogram obtained for a chemically prepared mixture of oxidized cellooligosaccharides with lengths varying from DP1 to DP10.
# The main peaks are annotated with molecular weight and degree of polymerization (DP). All annotated peaks are Na adducts of native cellooligosaccharides, oxidized cellooligosaccharides (denoted “ox”) or the sodium salts of oxidized cellooligosaccharides.
# Products were analyzed after 20 hours of incubation in 20 mM ammonium acetate buffer pH 5.0, 1 mM MgCl2 at 50° C. and 900 rpm (vertical agitation).
# Separation of native and oxidized cellooligosaccharides was achieved using a Dionex Bio-LC equipped with a CarboPack PA1, a column temperature of 30° C. and a flow of 0.25 ml/min, with starting conditions, i.e., 0.1 M NaOH. A stepwise linear gradient with increasing amounts of sodium acetate was applied, going from 0.1 M NaOH and 0.1 M sodium acetate in 10 minutes, then to 0.1 M NaOH and 0.3 M sodium acetate for 25 minutes then increasing to 0.1 M NaOH and 1.0 M sodium acetate at 30 minutes which was kept for 10 minutes. Column reconditioning was achieved by a one minute gradient to initial conditions and subsequent running at initial conditions for 14 minutes. Eluted oligosaccharides were monitored by PAD detection. Chromatograms were recorded and analysed using Chromeleon 7.0 Peak identification was achieved by a procedure including the following steps: oxidized cellooligosaccharides were separated using a Dionex Ultimate 3000 UHPLC system carrying a Hypercarb 150×2.1 mm column (Thermo Scientific) running a gradient of water/0.1% TFA and acetonitrile/0.1% TFA (from 20 to 80% acetonitrile) according to the method developed by Westphal et al., 2010, Journal of Chromatography A 1217: 689-695. Eluted peaks were manually fractioned, freeze-dried, re-dissolved in MilliQ water and identified using MALDI-TOF MS. Pure oxidized cellooligosaccharides with known identity were then analyzed using the HPEAC method described above in order to establish the identity of the oxidized cellooligosaccharides generated by CelS2 and E7.
# [8] = Filter paper cellulose degradation by […] with E7 (FIG. 28); assay type: biochemical
# Description: 1 μM of the N-terminal CBM33 domain of CelS2 was incubated with 10 mg/ml AVICEL® in the presence of 0.8 mM of one of the reductants, or in the absence of any reductant. Reactions were run in 50 mM succinate buffer pH 5.5, 1 mM MgCl2, at 50° C. and 900 rpm (vertical agitation) for 20 hours. […] (glucose and cellobiose reported as [Glc]) released after incubation of 0.08 μl/ml […]™ (CC) in the presence or absence of 1 μM E7 and 2 mM reduced glutathione (RG) as external electron donor with 2 mg/ml filter paper cellulose. Reactions were incubated in 20 mM sodium acetate buffer pH 5.5, 1 mM MgCl2, at 50° C. and 900 rpm (horizontal agitation) for up to 50 hours.
# [9] = Cellulase boosting properties of CelS2 at various pHs with monocomponent Cel7A; assay type: biochemical; conditions: Cel7A
# Source text: When probing the cellulose boosting properties of CelS2 at various pHs using monocomponent Cel7A as the cellulose hydrolytic component, pH 5.5 came out as the optimal pH for activity. […] The most obvious reason for the decrease in cellulose hydrolysis at increasing pH is the pH stability and efficiency of Cel7A. […] CelS2 is a bacterial enzyme that originates from Streptomyces species that are known to grow optimally on cellulosic substrates in approximately neutral pH conditions (Kontro et al., 2005, Letters in Applied Microbiology 41: 32-38.).
# [10] = 1.0 μM CBP21 alone, 0.45 mg/mL beta-chitin
molecule,measurement,setting,value
[Cu+2] [Cu^2+],reactivation of EDTA treated enzyme,[1],reactivated the enzyme
same,reactivation of EDTA treated enzyme,[1]; listed as copper,able to reactivate CelS2
same,effect on CBM33 action at higher metal concentration,"[1]; concentrations in the 1 mM range, not shown",inhibits CBM33 action
"CBP21: chitin-binding protein of Serratia marcescens, single-domain CBM33 protein (SEQ ID NO: 4) (protein, listed as Serratia marescens) MNKTSRTLLSLGLLSAAMFGVSQQANAHGYVESPASRAYQCKLQLNTQCGSVQYEPQSVEGLKGFPQAGPADGHIASADKSTFFELDQQTPTRWNKLNLKTGPNSFTWKLTARHSTTSWRYFITKPNWDASQPLTRASFDLTPFCQFNDGGAIPAAQVTHQCNIPADRSGSHVILAVWDIADTANAFYQAIDVNLSK",rate calculated for oxidized dimer,[2]; [10],0.68 µM/min
same,rate calculated for oxidized trimer,[2]; [10],0.60 µM/min
same,rate of oxidized products generated (dimer + trimer),[2]; [10],1.28 µM/min
same,end concentration of oxidized tetramer,"[2]; CBP21 + ChiC, five hours",55 µM
same,end concentration of oxidized trimer,"[2]; CBP21 + ChiC, five hours",53 µM
same,total GlcNAcA,"[2]; CBP21 + ChiC, five hours",108 µM
same,oxidized dimer produced at maximum levels,[2]; CBP21 alone,93 µM
same,oxidized trimer produced at maximum levels,[2]; CBP21 alone,75 µM
same,time at which maximum levels of oxidized sugars are reached,[2]; CBP21 alone,2 to 3 h
same,total GlcNAcA at maximum levels,[2]; CBP21 alone,168 µM
same,production of soluble oxidized oligosaccharides from beta-chitin,[3],soluble products are dominated by even numbered short oligosaccharides with acidic reducing ends
same,effect on CELLUCLAST (CC) production of soluble glucose over time,[4],did not affect CC efficiency
same,potentiating effect on chitinase (ChiC) efficiency,[5],promotes chitin degradation by ChiC considerably better in the presence of ascorbic acid
"E7: single domain CBM33 from Thermobifida fusca (SEQ ID NO: 6) (protein, listed as Thermobifida fusca) MHRYSRTGKHRWTVRALAVLFTALLGLTQWTAPASAHGSVINPATRNYGCWLRWGHDHLNPNMQYEDPMCWQAWQDNPNAMWNWNGLYRDWVGGNHRAALPDGQLCSGGLTEGGRYRSMDAVGPWKTTDVNNTFTIHLYDQASHGADYFLVYVTKQGFDPTTQPLTWDSLELVHQTGSYPPAQNIQFTVHAPNRSGRHVVFTIWKASHMDQTYYLCSDVNFV",increase of glucose yield versus CELLUCLAST only,"[6]; no external electron donor, 24 hours",~3.0 fold
same,increase of glucose yield versus CELLUCLAST only,"[6]; no external electron donor, 120 hours",~3.5 fold
same,increase of glucose yield versus CELLUCLAST only,"[6]; with external electron donor (1 mM reduced glutathione), 24 hours",3.5 fold
same,increase of glucose yield versus CELLUCLAST only,"[6]; with external electron donor (1 mM reduced glutathione), 120 hours",~4.5 fold
same,release of soluble native/oxidized cellooligosaccharides from AVICEL,[7],soluble oligomeric products were observed
same,effect on CELLUCLAST activity,"[8]; 1 μM E7, 0.08 μl/ml CC, 2 mg/ml filter paper, pH 5.5",acts in synergy with CELLUCLAST™; also recorded: prolongs cellulase activity over time
same,Glc or Glc2 released without cellulases,[8]; E7 in absence of cellulases,did not yield detectable amounts of Glc or Glc2
"CBP21^H114A: H114A mutant variant of CBP21 (protein, UniProt P9WEM3 28-197, looked up, variant H114A) AA10 family lytic …: HGYVESPASRAYQCKLQLNTQCGSVQYEPQSVEGLKGFPQAGPADGHIASADKSTFFELDQQTPTRWNKLNLKTGPNSFTWKLTARASTTSWRYFITKPNWDASQPLTRASFDLTPFCQFNDGGAIPAAQVTHQCNIPADRSGSHVILAVWDIADTANAFYQAIDVNLSK",production of soluble oxidized oligosaccharides from beta-chitin,[3],did not lead to production of soluble oxidized oligosaccharides
same,potentiating effect on chitinase (ChiC) efficiency,[5],unable to boost chitinase activity
"Cel7A: family GH7 cellulase from Hypocrea jecorina purified from CELLUCLAST (protein, UniProt P62694 18-513, looked up) Exoglucanase 1: QSACTLQSETHPPLTWQKCSSGGTCTQQTGSVVIDANWRWTHATNSSTNCYDGNTWSSTLCPDNETCAKNCCLDGAAYASTYGVTTSGNSLSIGFVTQSAQKNVGARLYLMASDTTYQEFTLLGNEFSFDVDVSQLPCGLNGALYFVSMDADGGVSKYPTNTAGAKYGTGYCDSQCPRDLKFINGQANVEGWEPSSNNANTGIGGHGSCCSEMDIWEANSISEALTPHPCTTVGQEICEGDGCGGTYSDNRYGGTCDPDGCDWNPYRLGNTSFYGPGSSFTLDTTKKLTVVTQFETSGAINRYYVQNGVTFQQPNAELGSYSGNELNDDYCTAEEAEFGGSSFSDKGGLTQFKKATSGGMVLVMSLWDDYYANMLWLDSTYPTNETSSTPGAVRGSCSTSSGVPAQVESQSPNAKVTFSNIKFGPIGSTGNPSGGNPPGGNRGTTTTRRPATTTGSSPGPTQSHYGQCGGIGYSGPTVCASGTTCQVLNPYYSQCL",cellulase activity at pH 8.0,[9],close to inactive
"CBM33 domain: recombinantly produced N-terminal CBM33 domain of CelS2 (SEQ ID NO: 22) (protein, Streptomyces coelicolor) HGVAMMPGSRTYLCQLDAKTGTGALDPTNPACQAALDQSGATALYNWFAVLDSNAGGRGAGYVPDGTLCSAGDRSPYDFSAYNAARSDWPRTHLTSGATIPVEYSNWAAHPGDFRVYLTKPGWSPTSELGWDDLELIQTVTNPPQQGSPGTDGGHYYWDLALPSGRSGDALIFMQWVRSDSQENFFSCSDVVFDGG",release of soluble native/oxidized cellooligosaccharides from AVICEL,[7],"shows activity on AVICEL® without its CBM2, although lower than the activity of the whole protein"
